Experiment: soluble on expression in E. coli; label from the status in PepcDB or PDB records

Sequence	soluble on expression in E. coli
MSGNSLKGKRIGFGLTGSHCTYDAVFPEIEKLVNEGAEVLPIVTYTVKTTNTRFGEGEEWVKKLEQLTGNEVIDTIVKAEPLGPKIPLDCMVIAPLTGNSMSKLANAMTDSPVLMAAKATMRNHRPVVLGISTNDALGLNGVNLMRLMAAKNIYFIPFGQDAPQAKPNSMVAYMPLLRDTILAALEGKQLQPVIIERFRYN	not soluble
MAMKVKEVANLVGISVRTLHHYDEIGLLTPDETTESGYRLYSNENLEMLQQILFFKELGFPLKKIKEIIMSPSFDRKEALQLHKKMLLEKRARLDKVIATIDKTIQHTKGEIEMTNKEKFKGFDFSHNPYEEEARERWGDAAVDKANEYAKGMSKEKQEEFNAIYRNLAALRHGAPDSKEAQEAIKVWYDYLQNFSHYSLDAFKGLGQMYVADERFTKNIDKFGEGLAQFMCDAMEVYADRNK	not soluble
MVEEQLSLSGVEEIAPKIETPKIEKRTVKERRQQVLTVLIHMLHSERGMERMTTARLAKEVGVSEAALYRYFPSKTKMFEALIEHIESTLLSRITASMRNETQTMNRIHDILQTILDFARKNPGLTRVLTGHALMFEEAQLQARVAQFFDRLEMQFVNILQMRKLREGRAFNVDERIIASHLVTLCEGQFMRYVRTNFRLNSSQSFEQQWRFIEPLFA	not soluble
MGSDKIHHHHHHMTYAVGDIHGCFYALKSLLEKLPLSEEDELIFMGDYVDRGPNSREVIEFLIELSKHHRCIFLRGNHEEMLLNCVKNGSDCDLWFFNGARSTVESFGGVEEIKKFLPFFENTVYHYEKENYVFVHGGVRPGVSLEDQDPFDLVWIRDEFIYSENPLPGKIVVFGHTPFEEPFVSRDKIGIDTGCVYGGRLTALRVEDRKFFQVECANRRW	not soluble
MGKTLFEKVWNAHVVTEVKDGPSILYIDKQLIHEVTSPQAFAGIEKRGIGVFRPERTLATPDHNVPTKGQNLPIVEDLSRFQVDKLTENCNKFGVTLYGLGHASQGVVHVVGPETGTTLPGMTIVCGDS	not soluble
MTKIAESKIIVGLDIGTSKIAVVVGEVLPDGVINVLGASNCPSKGIDRGGVIDLDAAVNSIQRAIEQAESVSNCQIMGVTLAISGQHITALNESGVIPLSGTVVRKEDIDAAIHIAHSIKLPDG	not soluble
MSLDSSKRQFLQQLGVLTAGASLVPLAEAKFPFSPERHEGSPRHRYAMLIDLRRCIGCQSCTVSCTIENQTPQGAFRTTVNQYQVQREGSQEVTNVLLPRLCNHCDNPPCVPVCPVQATFQREDGIVVVDNKRCVGCAYCVQACPYDARFINHETQTADKCTFCVHRLEAGLLPACVESCVGGARIIGDIKDPHSRIATMLHQHRDAIKVLKPENGTSPHVFYLGLDDAFVTPLMGRAQPALWQEGHHHHHH	not soluble
TVGILWVNWDSRVRYANRAVESMLGYAPGQVVERPLIDFEPDLHMDRWLNLWKNARSSEDSAQVFETHCLRADGSLLPADVSLSFLRFR	not soluble
MGGSHHHHHHGMASALKEAMVQAEEAAAEITRKLEKQEKKRLKKEKKRLAALALASSENSSSTPEECEEMSEKPKKKKKQKPQEVPQENGMEDPSISFSKPKKKKSFSKEELMSSDLEETAGSTSIPKRKKSTPKEETVNDPEEAGHRSGSKKKRKFSKEEPVSSGPEEAVGKSSSKKKKKFHKASQED	not soluble
MSLRMIGKVLELLNCKETEREINRRKFSICDDVNFILNLPIGYLKDVISPLENYLSKHMTNNFSRLTRVVPNDYEDTQLHFSKFFLNLYSSAISEIPRFNILTSLVILDEYRMMPDKALIAAADELARNGINAIFSTSTPSVFFEEEIVSRFRNRRVVSISIVNEYGQAVEGRDCVKKGEGYYQCRGSYEVIELIEDFDIRDLDYEIIKGEEVFKVKEPFTLFVNSWEKALRLYRKLREERNTEVCLLNSSDECKVTITPKIMPTRFNVVSEISSLPTIVARSGIINDKDKIYVWIDRDNYDTVTESTLNLLSNIKVCLKHPFGCNGKMGYANKTVLKPNIDERLIKRLSEISHLMDRREFEKVTEVFSDFVTVDLFTDKEKITTVPPEFVYENKKKILYYGNSCVYTYFTDGEKCSKIVYNWLEGGGVSWLKRNLARAYKNYVEEEGKKKVFLGLKARDVEEWIEGHHHHHH	not soluble
MGSDKIHHHHHHKEQNLDDFEQEYQNYQVNDPLSGYNKAMTSFNVALYDYGLRPVLKGYNAITPEFIRLGARNFFDNLLAPLRFVSNVLQFKFEEAGEEFKRFTANTIMGFGGLMDVASKMGLKKHPADLGTVLAHWGVGSGFHIVLPILGPSNLRDTLTLPATWYASFTAYIDPTWASIAISAYGFGNELSFRLDEIDEIYHNTPNLYPFLRDAYEQRRNELSK	not soluble
MTLWDRLSRLVRANLNDLLRRAEDPEKIIEQALLDMKQALREAREQVAEALAEQKRLEREVESHEREAALWEEKAREALKAGREDLAREALRRKKRALDLAEGFKAQLSEHKALTERLMTQLKALEAKIDEAEARKKLLLARKKGVEAAETVRRMESRLDQHPALEAFEEMEARILAMEDRHQALEALDQADLEKEFQALSAEKEVEEDLLRLKRELGQAAAALEHHHHHH	not soluble
GASLAPLRRMREVAARVSANSLTTRLDASRMPEELRGLAGELNAMLARLEEAFQRLSAFSADIAHELRTPLTSLLTQTQVVLSRPRSLEDYREALHGNLEELERLTAMVNDMLLLAKADHGLLAPSRQALDLGAEVDSLLEFYQPLAEDRDIRLLREGSLSLPGDRGMLRRVLANLLDNALRFTADGGEIRIRLGDRRLSVENQGPAIPPERLPRLFDRFYRADPARREGQGEHAGLGLAICRSIVQAHGGEIRCESADGWTRFVIDFAR	not soluble
MGSDKIHHHHHHMTKEINPFIVTGKIEPEYFCDRVKESERLVKSLTNGNNLVIISPRRMGKTGLIRFCYEKPEIKEEYYTFFIDILHTSSLREFTYLLGKEIYETLLPRSKKMASLFIQTVKSINGKFGFDPLTNLPTFNLELGDIDRPEYTLEEIFQCLIAADKPCIVAIDEFQQIAKYPEKNIEALLRTHIQTIENSNFIFAGSERHMMQEMFLSSSRPFYHSADILELKAIVPEIYIPFIADHFQKRKRHIEIENIEKVYRLFKGHTFYIQKTFNEAFADTPKGKECTLEIIKTAIDNLIAYNDTIFREILSNIPEKQKELLYAIAKVGEAENVTSAKFIKRYSLTSASSVQSATKKLLEKDIITEINKVYSVTDKFFGMWINTIYGNKYTL	not soluble
MEPKRSRLVVCAPEPSHAREFPDVAVFSGGRANASQAERLARAVGRVLADRGVTGGARVRLTMANCADGPTLVQINLQVGDTPLRAQAATAGIDDLRPALIRLDRQIVRASAQWCPRPWPDRPRRRLTTPAEALVTRRKPVVLRRATPLQAIAAMDAMDYDVHLFTDAETGEDAVVYRAGPSGLRLARQHHVFPPGWSRCRAPAGPPVPLIVNSRPTPVLTEAAAVDRAREHGLPFLFFTDQATGRGQLLYSRYDGNLGLITPTGDGVADGLA	soluble
LRTGIDNVLRAKTGGLIVLGYNENMKGIVDGGFYLDCPFSPASLYELAKMDGAIILNEDGTKILYANTQLNPDNAISSNETGIRHRTAERVAKQTGNLVISISQRRNVITLYHGHL	soluble
MMKEFTPAPDSASIVSVTDRVKPVALGMGVTSVHFLGDRAAFVGGEENVAFVDSQGEITTVAVHGGGILSTASDGKRLVMGGDDGKVVSLDAKGEVTLLATDPKRRWIDAVALHADGAFAWSAGKTATVKSGKTEEKSLEVPSTVGGLAFAPKGLRLAIAHYNGATLWFPNMAASAEFLPWAGSHHAVTFSPDNKFLVTAMHEPALHGWRLADNRHMRMTGYPGRVRSMSWSAGGKALATSGADTVILWPFGSKDGPMGKEPAMLAPLQARVSVVACHPKNDILAAGYSDGTVLMVRLEDGAEILVRRNGTPPVAALAWNAKGTLLAFADENGDGGLLELLEHHHHHH	soluble
MSLCQLLGMNCNTPTDIMFSFEGFRRRGGITDHHADGFGIGFFEGKGVRLFHDDKPSVNSPVADLVRAYQIKSENVIAHIRKASQGQTSLANTHPFMREMWGGYWLFAHNGHLIDFFPEQGEFFHPVGTTDSERAFCHILNRLRTRFAARPDDDTLFDAIAGLTHEIRKFGLFNFMLSDGIALFAHASTLLHYIVRQAPFGKARLLDDDVMVDFAEVTTPSDRVAVIATLPLTRDESWSQLAVDELVMFREGNIVRHDRPENPVYMSAEEGLEIARAEGGSHHHHHH	soluble
PLGSQYFLKVLIPSYAAGSIIGKGGQTIVQLQKETGATIKLSKSKDFYPGTTERVCLIQGTIEALNAVHGFIAEKIREMPQNVAKTEPVSILQPQTTVNPDRANQVKIIVPNSTAGLIIGKGGATVKAIMEQSGAWVQLSQKPDGINLQNRVVTVSGEPEQNRKAVELIIQKIQEDPQ	soluble
MADEALFLLLHNEMVSGVYKSAEQGEVENGRCITKLENMGFRVGQGLIERFTKDTARFKDELDIMKFICKDFWTTVFKKQIDNLRTNHQYLAFTCGLIRGGLSNLGIKSIVTAEVSSMPACKFQVMIQKL	not soluble
MGSDKIHHHHHHMKRPGFIERHHLWTEIQKEASEKIKTIVKEQDLLLIRTAWSDQHGIVRSKSLLPQAFFSALENGMQISTGTFLLDTGGAIVFNPFVPGGSLDMPLMTGAPNLVAVPDPDTFKIVPWAKRTGFILCDEYFQNGQPMPFSSRGILRQSLIDLHQRGLEHIVGLEVEWYLAKLEDPMLAIANVGSSGKPGEPAKVSAVDHSFQYLLESHNPEIQDLLGLLAENLVEMKLPLRSVENEGGVGQFEFTFDPIPALQAADTMMIFRMATKQICRQQGYIASFMCRPGLQGSSSNGWHLHQSLVDLTTGENAFMSANSQTLTSDLAKHFVGGLLKHANAASVFTTPTINGYKRFRPYSLAPDRAGWGLENRGAMIRLQGGFDDPSTHIENRVGEPAANPYLYMASQLISGLDGVDCKLDPGSPTEEPYTTENPILPKSLSEAISYLSQSELFPQKMGQQFINFIIKMKESEINRFLQSVADQPPEEYLKQVTNWEQREYFELF	not soluble
MSLSESAPTPRRERVIVGMSGGVDSSVSALLLLQQGYQVEGLFMKNWDEDDGTEYCTAREDLADAQAVCDRIGIKLHTANFAAEYWDNVFEHFLAEYKAGRTPNPDILCNREIKFKAFLDYALMLGADLIATGHYVRRRDRDGRTELLKGLDPNKDQSYFLHAVGGEQIARSLFPVGELEKPEVRAIAEKHGLATAKKKDSTGICFIGERRFTDFLKQYLPAQPGDIETTEGKVIGRHSGLMYHTIGQRQGLGIGGLKEAGDDPWYVLGKDLQRNVLLVGQGNDHPLLFSRALLASRIYWVNPVELERPRRLRAKVRYRQSDQDCVLEKTAEGYRAVFDEPQRAVTPGQSVVFYDGDVCLGGGVIETAEAWDFGGRPEGHHHHHH	soluble
MGSDKIHHHHHHMSAQTRPAPGRHTIRVSEDDCGLGQFGGGAWLSDAALWPSDPSTGRPMTPIVMLTDLFLPSVWLADDMAVTVFAALGRESDAYNRTALRTFTIHQQSELEKIDAGHSKVVLHRRAAREMVRETVMLPRHFVGLQPFDERDAEEEAEDADNGAGMSKQLGRPYWLQDPIHAHPRHYFLSQFVESDLRQQDPAYDGLFADGTGYLFAEQRAKVLREGDTAGYFFIQFT	not soluble
MLRSLLIRATAPAVCAGLLWTAAPAHAQSPAPTRPVSSDTWADRATGTYRALQKHLYEGPGDHGLYLEHTPRQATDQEHSYLWPFREAAQAAVDMQRLPRTGPAYRQDAAERFDTAELYHTGGERPGYRSYLPAPLGTGGDVYYDDNAVVALSQLDQYEETGDARYLRRAEQVVPVVSRAWDGDAAKACPGGMDWYDAPGNTIRATNVTALSAQLAARLYEHTRNRAYLDKAEQWYGWVYACMRKAPGLYVNDRGDDGSTNETLWTYNSGAMIGTATALYRGTGDARYLEKAVADARGSLAYWTGGTRLHDQPAVFNAFYFKDLLDLDAVRPDSAYLSAMSAYADNTYRSNRDASSGLFRFQPSNGGDYDPAAPAATLNQSAMVQIFATLADATRRDHRTSLEHHHHHH	not soluble

Source: the DeepSol protein solubility set
